Values quoted from earlier work as cited in patent US20250282866A1, “TREATMENT OF DISEASES RELATED TO ATP-BINDING CASSETTE TRANSPORTER 1 DYSFUNCTION USING TREM2 AGONISTS” (VIGIL NEUROSCIENCE, INC., priority 2020, published 2025).

Target: T1, human TREM2 (Homo sapiens, UniProt Q9NZC2)
T1 sequence (Q9NZC2 19-230): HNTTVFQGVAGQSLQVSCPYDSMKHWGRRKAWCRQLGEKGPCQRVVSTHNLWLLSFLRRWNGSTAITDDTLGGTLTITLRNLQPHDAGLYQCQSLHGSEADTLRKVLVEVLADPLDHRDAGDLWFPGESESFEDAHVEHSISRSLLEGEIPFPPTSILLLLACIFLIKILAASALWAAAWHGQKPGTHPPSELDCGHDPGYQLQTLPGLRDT
Conditions: for Binding Signal (fold over 6E7 Parental antibody) 1st screen 110 nM or 10 nM: values printed without asterisk, concentration 110 nM or 10 nM (footnote a not given)

B1: V50: 6E7 variant: VH T30G, I50V, F110L; VL L54R, F94L (antibody, V domains shown)
VH: EVQLVQSGAEVKKPGESLKISCKGSGYSFGSYWIAWVRQMPGKGLEWMGVIYPGDSDTRYSPSFQGQVTISADKSISTAYLQWSSLKASDTAMYFCARQRTFYYDSSDYLDYWGQGTLVTVSS
VL: DIQMTQSPSSVSASVGDRVTITCRASQGISSWLAWYQQKPGKAPKLLIYAASSRQNGVPSRFSGSGSGTDFTLTISSLQPEDFATYFCQQADSLPRTFGQGTKLEIK
  Binding Signal (fold over 6E7 Parental antibody) 1st screen 110 nM or 10 nM: 4.10 fold over 6E7 Parental antibod
  Binding Signal (fold over 6E7 Parental antibody) 2nd screen 2 nM: 3.39 fold over 6E7 Parental antibod
  Binding Signal (fold over 6E7 Parental antibody) 2nd screen 10 nM: 4.16 fold over 6E7 Parental antibod

B2: V52: 6E7 variant: VH T30E, Q99G; VL N56R, S93R (antibody, V domains shown)
VH: EVQLVQSGAEVKKPGESLKISCKGSGYSFESYWIAWVRQMPGKGLEWMGIIYPGDSDTRYSPSFQGQVTISADKSISTAYLQWSSLKASDTAMYFCARGRTFYYDSSDYFDYWGQGTLVTVSS
VL: DIQMTQSPSSVSASVGDRVTITCRASQGISSWLAWYQQKPGKAPKLLIYAASSLQRGVPSRFSGSGSGTDFTLTISSLQPEDFATYFCQQADRFPRTFGQGTKLEIK
  Binding Signal (fold over 6E7 Parental antibody) 1st screen 110 nM or 10 nM: 3.00 fold over 6E7 Parental antibod
  Binding Signal (fold over 6E7 Parental antibody) 2nd screen 2 nM: 1.78 fold over 6E7 Parental antibod
  Binding Signal (fold over 6E7 Parental antibody) 2nd screen 10 nM: 3.09 fold over 6E7 Parental antibod

B3: V51: 6E7 variant: VH T58V, Q99G, Y112N; VL L54R (antibody, V domains shown)
VH: EVQLVQSGAEVKKPGESLKISCKGSGYSFTSYWIAWVRQMPGKGLEWMGIIYPGDSDVRYSPSFQGQVTISADKSISTAYLQWSSLKASDTAMYFCARGRTFYYDSSDYFDNWGQGTLVTVSS
VL: DIQMTQSPSSVSASVGDRVTITCRASQGISSWLAWYQQKPGKAPKLLIYAASSRQNGVPSRFSGSGSGTDFTLTISSLQPEDFATYFCQQADSFPRTFGQGTKLEIK
  Binding Signal (fold over 6E7 Parental antibody) 1st screen 110 nM or 10 nM: 2.81 fold over 6E7 Parental antibod
  Binding Signal (fold over 6E7 Parental antibody) 2nd screen 2 nM: 1.83 fold over 6E7 Parental antibod
  Binding Signal (fold over 6E7 Parental antibody) 2nd screen 10 nM: 3.18 fold over 6E7 Parental antibod

B4: V60: 6E7 variant: VH S28H, T58V, F110S; VL N56R, Q89G (antibody, V domains shown)
VH: EVQLVQSGAEVKKPGESLKISCKGSGYHFTSYWIAWVRQMPGKGLEWMGIIYPGDSDVRYSPSFQGQVTISADKSISTAYLQWSSLKASDTAMYFCARQRTFYYDSSDYSDYWGQGTLVTVSS
VL: DIQMTQSPSSVSASVGDRVTITCRASQGISSWLAWYQQKPGKAPKLLIYAASSLQRGVPSRFSGSGSGTDFTLTISSLQPEDFATYFCGQADSFPRTFGQGTKLEIK
  Binding Signal (fold over 6E7 Parental antibody) 1st screen 110 nM or 10 nM: 3.26 fold over 6E7 Parental antibod
  Binding Signal (fold over 6E7 Parental antibody) 2nd screen 2 nM: 3.35 fold over 6E7 Parental antibod
  Binding Signal (fold over 6E7 Parental antibody) 2nd screen 10 nM: 3.63 fold over 6E7 Parental antibod

B5: V75: 6E7 variant: VH Q99G; VL N56A, F94Y (antibody, V domains shown)
VH: EVQLVQSGAEVKKPGESLKISCKGSGYSFTSYWIAWVRQMPGKGLEWMGIIYPGDSDTRYSPSFQGQVTISADKSISTAYLQWSSLKASDTAMYFCARGRTFYYDSSDYFDYWGQGTLVTVSS
VL: DIQMTQSPSSVSASVGDRVTITCRASQGISSWLAWYQQKPGKAPKLLIYAASSLQAGVPSRFSGSGSGTDFTLTISSLQPEDFATYFCQQADSYPRTFGQGTKLEIK
  Binding Signal (fold over 6E7 Parental antibody) 1st screen 110 nM or 10 nM: 4.64 fold over 6E7 Parental antibod
  Binding Signal (fold over 6E7 Parental antibody) 2nd screen 2 nM: 3.74 fold over 6E7 Parental antibod
  Binding Signal (fold over 6E7 Parental antibody) 2nd screen 10 nM: 4.52 fold over 6E7 Parental antibod

B6: V72: 6E7 variant: VH A35G, Q99G; VL Q55V, F94Y (antibody, V domains shown)
VH: EVQLVQSGAEVKKPGESLKISCKGSGYSFTSYWIGWVRQMPGKGLEWMGIIYPGDSDTRYSPSFQGQVTISADKSISTAYLQWSSLKASDTAMYFCARGRTFYYDSSDYFDYWGQGTLVTVSS
VL: DIQMTQSPSSVSASVGDRVTITCRASQGISSWLAWYQQKPGKAPKLLIYAASSLVNGVPSRFSGSGSGTDFTLTISSLQPEDFATYFCQQADSYPRTFGQGTKLEIK
  Binding Signal (fold over 6E7 Parental antibody) 1st screen 110 nM or 10 nM: 3.64 fold over 6E7 Parental antibod
  Binding Signal (fold over 6E7 Parental antibody) 2nd screen 2 nM: 2.50 fold over 6E7 Parental antibod
  Binding Signal (fold over 6E7 Parental antibody) 2nd screen 10 nM: 4.01 fold over 6E7 Parental antibod

B7: V62: 6E7 variant: VH T30G, S61A, D108G; VL N56R, Q89G (antibody, V domains shown)
VH: EVQLVQSGAEVKKPGESLKISCKGSGYSFGSYWIAWVRQMPGKGLEWMGIIYPGDSDTRYAPSFQGQVTISADKSISTAYLQWSSLKASDTAMYFCARQRTFYYDSSGYFDYWGQGTLVTVSS
VL: DIQMTQSPSSVSASVGDRVTITCRASQGISSWLAWYQQKPGKAPKLLIYAASSLQRGVPSRFSGSGSGTDFTLTISSLQPEDFATYFCGQADSFPRTFGQGTKLEIK
  Binding Signal (fold over 6E7 Parental antibody) 1st screen 110 nM or 10 nM: 2.49 fold over 6E7 Parental antibod
  Binding Signal (fold over 6E7 Parental antibody) 2nd screen 2 nM: 1.87 fold over 6E7 Parental antibod
  Binding Signal (fold over 6E7 Parental antibody) 2nd screen 10 nM: 2.89 fold over 6E7 Parental antibod

B8: V74: 6E7 variant: VH T30A, T58V, Q99G; VL N56L (antibody, V domains shown)
VH: EVQLVQSGAEVKKPGESLKISCKGSGYSFASYWIAWVRQMPGKGLEWMGIIYPGDSDVRYSPSFQGQVTISADKSISTAYLQWSSLKASDTAMYFCARGRTFYYDSSDYFDYWGQGTLVTVSS
VL: DIQMTQSPSSVSASVGDRVTITCRASQGISSWLAWYQQKPGKAPKLLIYAASSLQLGVPSRFSGSGSGTDFTLTISSLQPEDFATYFCQQADSFPRTFGQGTKLEIK
  Binding Signal (fold over 6E7 Parental antibody) 1st screen 110 nM or 10 nM: 3.94 fold over 6E7 Parental antibod
  Binding Signal (fold over 6E7 Parental antibody) 2nd screen 2 nM: 2.54 fold over 6E7 Parental antibod
  Binding Signal (fold over 6E7 Parental antibody) 2nd screen 10 nM: 4.01 fold over 6E7 Parental antibod

B9: V61: 6E7 variant: VH T30S, S61N, Q99G; VL Q55V, F94L (antibody, V domains shown)
VH: EVQLVQSGAEVKKPGESLKISCKGSGYSFSSYWIAWVRQMPGKGLEWMGIIYPGDSDTRYNPSFQGQVTISADKSISTAYLQWSSLKASDTAMYFCARGRTFYYDSSDYFDYWGQGTLVTVSS
VL: DIQMTQSPSSVSASVGDRVTITCRASQGISSWLAWYQQKPGKAPKLLIYAASSLVNGVPSRFSGSGSGTDFTLTISSLQPEDFATYFCQQADSLPRTFGQGTKLEIK
  Binding Signal (fold over 6E7 Parental antibody) 1st screen 110 nM or 10 nM: 5.08 fold over 6E7 Parental antibod
  Binding Signal (fold over 6E7 Parental antibody) 2nd screen 2 nM: 3.63 fold over 6E7 Parental antibod
  Binding Signal (fold over 6E7 Parental antibody) 2nd screen 10 nM: 5.22 fold over 6E7 Parental antibod

B10: V64: 6E7 variant: VH T30Q, Q99G; VL Q55A, F94Y (antibody, V domains shown)
VH: EVQLVQSGAEVKKPGESLKISCKGSGYSFQSYWIAWVRQMPGKGLEWMGIIYPGDSDTRYSPSFQGQVTISADKSISTAYLQWSSLKASDTAMYFCARGRTFYYDSSDYFDYWGQGTLVTVSS
VL: DIQMTQSPSSVSASVGDRVTITCRASQGISSWLAWYQQKPGKAPKLLIYAASSLANGVPSRFSGSGSGTDFTLTISSLQPEDFATYFCQQADSYPRTFGQGTKLEIK
  Binding Signal (fold over 6E7 Parental antibody) 1st screen 110 nM or 10 nM: 5.41 fold over 6E7 Parental antibod
  Binding Signal (fold over 6E7 Parental antibody) 2nd screen 2 nM: 4.88 fold over 6E7 Parental antibod
  Binding Signal (fold over 6E7 Parental antibody) 2nd screen 10 nM: 5.48 fold over 6E7 Parental antibod

B11: V73: 6E7 variant: VH T30G, S63G, Q99G; VL L54R, F94Y (antibody, V domains shown)
VH: EVQLVQSGAEVKKPGESLKISCKGSGYSFGSYWIAWVRQMPGKGLEWMGIIYPGDSDTRYSPGFQGQVTISADKSISTAYLQWSSLKASDTAMYFCARGRTFYYDSSDYFDYWGQGTLVTVSS
VL: DIQMTQSPSSVSASVGDRVTITCRASQGISSWLAWYQQKPGKAPKLLIYAASSRQNGVPSRFSGSGSGTDFTLTISSLQPEDFATYFCQQADSYPRTFGQGTKLEIK
  Binding Signal (fold over 6E7 Parental antibody) 1st screen 110 nM or 10 nM: 5.12 fold over 6E7 Parental antibod
  Binding Signal (fold over 6E7 Parental antibody) 2nd screen 2 nM: 4.17 fold over 6E7 Parental antibod
  Binding Signal (fold over 6E7 Parental antibody) 2nd screen 10 nM: 5.44 fold over 6E7 Parental antibod

B12: V63: 6E7 variant: VH T30R, Q99S; VL N56R, S93R (antibody, V domains shown)
VH: EVQLVQSGAEVKKPGESLKISCKGSGYSFRSYWIAWVRQMPGKGLEWMGIIYPGDSDTRYSPSFQGQVTISADKSISTAYLQWSSLKASDTAMYFCARSRTFYYDSSDYFDYWGQGTLVTVSS
VL: DIQMTQSPSSVSASVGDRVTITCRASQGISSWLAWYQQKPGKAPKLLIYAASSLQRGVPSRFSGSGSGTDFTLTISSLQPEDFATYFCQQADRFPRTFGQGTKLEIK
  Binding Signal (fold over 6E7 Parental antibody) 1st screen 110 nM or 10 nM: 3.76 fold over 6E7 Parental antibod
  Binding Signal (fold over 6E7 Parental antibody) 2nd screen 2 nM: 4.91 fold over 6E7 Parental antibod
  Binding Signal (fold over 6E7 Parental antibody) 2nd screen 10 nM: 3.71 fold over 6E7 Parental antibod
